± gives the standard deviation of the averaged measurements.
B1: library; a variant is named by its letters at N, in order (parent)
chain: GCUGUCACCGAGAAACUGUGAAGUAUAUCUUAAACCUGGGCACUUAAAAGAUAUAUGGAGUUAGUAGUGCAACCUGCUCGGUCUGAUGAGUCCNNNNNNGGACGAAACAGC

Columns and labels:
cyclic di-GMP [1] = variants of: B1; test: normalized RNA/DNA level without ligand (relative to sTRSVctl = 100) (log10 (% of sTRSVctl)); HEK293T; ligand: cyclic di-GMP (c-di-GMP-II aptamer); higher = less ribozyme self-cleavage, higher mRNA level; settings: reporter: mCherry (pCS4076), ligand present: no
Procedure, shortened: (§1)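 Library plasmids carrying ribozyme switches linked to mCherry, or to eGFP in some ligand experiments, were transfected into HEK293T at 4 µg per 6-well well, with any ligand added 1 h earlier. Seventy-two hours on, total RNA was extracted with EDTA and reverse-transcribed, amplified, barcoded and sequenced. RNA level was RNA over DNA reads normalized to a spiked-in non-cleaving sequence or to the top sequences, then scaled and log-transformed. The top set was 25 sequences, the transform was ×100 and log10, and sequences needed ≥100 DNA reads.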

cyclic di-GMP [2] = variants of: B1; test: normalized RNA/DNA level with ligand (relative to sTRSVctl = 100) (log10 (% of sTRSVctl)); HEK293T; ligand: cyclic di-GMP (c-di-GMP-II aptamer); ligand concentration (+) RNA-Seq: 1 mM; higher = less ribozyme self-cleavage, higher mRNA level; settings: reporter: mCherry (pCS4076), ligand present: yes
Procedure, shortened: as §1

Variant | normalized RNA/DNA level without ligand (log10) (cyclic di-GMP [1]) | normalized RNA/DNA level with ligand (log10) (cyclic di-GMP [2])
GUGCUA | 1.646 ± 0.0015 | 1.8 ± 0.091
GUGCUU | 1.71 ± 0.025 | 1.84 ± 0.14
GUGCUG | 1.75 ± 0.024 | 1.86 ± 0.12
CUGGAG | 1.604 ± 0.006 | 1.77 ± 0.099
CUGGAC | 1.63 ± 0.018 | 1.77 ± 0.096
CUGGAU | 1.53 ± 0.094 | 1.73 ± 0.053
AUGGUC | 1.67 ± 0.018 | 1.81 ± 0.1
AUGGUU | 1.46 ± 0.03 | 1.68 ± 0.1
UUGCUG | 1.7171 ± 3.9e-05 | 1.84 ± 0.14
UUGCUC | 1.788 ± 0.015 | 1.86 ± 0.071
UUGCUU | 1.727 ± 0.0027 | 1.88 ± 0.12
UUGCUA | 1.62 ± 0.052 | 1.81 ± 0.07
CUUGAU | 1.66 ± 0.023 | 1.82 ± 0.13
CUUGAG | 1.68 ± 0.017 | 1.79 ± 0.09
UUGUGG | 1.795 ± 0.0063 | 1.9 ± 0.1
UUGUGC | 1.75 ± 0.027 | 1.86 ± 0.052
UUGUGA | 1.599 ± 0.011 | 1.79 ± 0.11
UUGUGU | 1.716 ± 0.015 | 1.88 ± 0.11
CUUAUG | 1.67 ± 0.022 | 1.81 ± 0.1
CUUAUC | 1.73 ± 0.088 | 1.87 ± 0.14
CUUAUU | 1.54 ± 0.023 | 1.71 ± 0.065
AUUAGU | 1.686 ± 0.01 | 1.83 ± 0.11
AUUAGG | 1.56 ± 0.065 | 1.72 ± 0.17
AUUAGA | 1.52 ± 0.12 | 1.69 ± 0.058

Variant | normalized RNA/DNA level without ligand (log10) (cyclic di-GMP [1]) | normalized RNA/DNA level with ligand (log10) (cyclic di-GMP [2])
CUGUUC | 1.64 ± 0.038 | 1.79 ± 0.12
CUGUUG | 1.56 ± 0.035 | 1.69 ± 0.076
CUGUUU | 1.575 ± 0.0091 | 1.72 ± 0.12
GUGGCA | 1.81 ± 0.027 | 1.91 ± 0.097
GUGGCG | 1.85 ± 0.022 | 1.87 ± 0.094
GUGGCU | 1.76 ± 0.029 | 1.86 ± 0.074
GUUCCG | 1.82 ± 0.039 | 1.94 ± 0.1
GUUCCC | 1.8 ± 0.021 | 1.9 ± 0.13
GUUCCU | 1.76 ± 0.079 | 1.89 ± 0.13
CUGGGA | 1.55 ± 0.09 | 1.74 ± 0.093
CUGGGG | 1.648 ± 0.0018 | 1.83 ± 0.19
CUGGGC | 1.733 ± 0.0023 | 1.88 ± 0.09
CUGGGU | 1.71 ± 0.033 | 1.85 ± 0.13
UUUCCC | 1.83 ± 0.07 | 1.94 ± 0.13
UUUCCU | 1.812 ± 0.016 | 1.92 ± 0.1
UUUCCA | 1.78 ± 0.028 | 1.9 ± 0.13
UUUCCG | 1.8104 ± 0.0015 | 1.92 ± 0.056
AUUGAU | 1.63 ± 0.029 | 1.79 ± 0.061
AUUGAC | 1.663 ± 0.0079 | 1.79 ± 0.15
AUUGAG | 1.57 ± 0.018 | 1.7 ± 0.13
AUGUCA | 1.59 ± 0.072 | 1.78 ± 0.066
AUGUCU | 1.7 ± 0.028 | 1.84 ± 0.046
AUGUCG | 1.64 ± 0.035 | 1.76 ± 0.087
AUGUCC | 1.74 ± 0.02 | 1.86 ± 0.15

Variant | normalized RNA/DNA level without ligand (log10) (cyclic di-GMP [1]) | normalized RNA/DNA level with ligand (log10) (cyclic di-GMP [2])
AUUCAA | 1.58 ± 0.032 | 1.77 ± 0.15
AUUCAC | 1.76 ± 0.021 | 1.88 ± 0.09
AUUCAU | 1.74 ± 0.045 | 1.84 ± 0.11
CUGUAC | 1.67 ± 0.033 | 1.82 ± 0.096
CUGUAG | 1.66 ± 0.051 | 1.84 ± 0.1
CUGUAA | 1.26 ± 0.086 | 1.51 ± 0.1
UUGUAA | 1.685 ± 0.015 | 1.86 ± 0.15
UUGUAC | 1.74 ± 0.089 | 1.85 ± 0.18
AUGUAG | 1.59 ± 0.017 | 1.77 ± 0.11
AUGUAA | 1.54 ± 0.078 | 1.68 ± 0.14
UUGCGG | 1.84 ± 0.045 | 1.94 ± 0.04
UUGCGC | 1.74 ± 0.027 | 1.83 ± 0.072
UUGGAC | 1.665 ± 0.0078 | 1.78 ± 0.08
UUGGAU | 1.63 ± 0.032 | 1.83 ± 0.1
UUGGAG | 1.6 ± 0.037 | 1.71 ± 0.066
AUGUUU | 1.56 ± 0.034 | 1.77 ± 0.15
AUGUUC | 1.681 ± 0.01 | 1.84 ± 0.1
AUGUUG | 1.56 ± 0.036 | 1.72 ± 0.14
GUUAUU | 1.679 ± 0.0041 | 1.83 ± 0.11
GUUAUC | 1.51 ± 0.045 | 1.74 ± 0.067
UUUAGA | 1.716 ± 0.011 | 1.87 ± 0.086
UUUAGG | 1.87 ± 0.057 | 1.96 ± 0.14
UUUAGC | 1.76 ± 0.054 | 1.86 ± 0.14
AUUCCU | 1.74 ± 0.044 | 1.86 ± 0.1

Variant | normalized RNA/DNA level without ligand (log10) (cyclic di-GMP [1]) | normalized RNA/DNA level with ligand (log10) (cyclic di-GMP [2])
AUUCCG | 1.75 ± 0.021 | 1.84 ± 0.078
UUUCAC | 1.73 ± 0.093 | 1.84 ± 0.14
UUUCAU | 1.72 ± 0.035 | 1.83 ± 0.12
UUUCAA | 1.712 ± 0.0062 | 1.86 ± 0.092
UUUCAG | 1.75 ± 0.022 | 1.86 ± 0.1
GUGGAG | 1.61 ± 0.059 | 1.71 ± 0.092
GUUAAA | 1.51 ± 0.079 | 1.7 ± 0.12
GUUAAC | 1.67 ± 0.046 | 1.8 ± 0.037
UUUCGG | 1.8 ± 0.066 | 1.93 ± 0.12
UUUCGU | 1.72 ± 0.025 | 1.86 ± 0.083
UUUCGC | 1.789 ± 0.0088 | 1.89 ± 0.14
GUUGCA | 1.81 ± 0.038 | 1.87 ± 0.1
CUUCGA | 1.71 ± 0.026 | 1.84 ± 0.065
CUUCGU | 1.8 ± 0.04 | 1.87 ± 0.094
CUUCGG | 1.82 ± 0.028 | 1.886 ± 0.0058
CUUCGC | 1.79 ± 0.024 | 1.83 ± 0.056
GUGUAG | 1.7031 ± 0.0011 | 1.85 ± 0.095
GUGUAC | 1.58 ± 0.025 | 1.78 ± 0.089
GUGUAU | 1.6 ± 0.018 | 1.78 ± 0.14
GUGUAA | 1.48 ± 0.027 | 1.67 ± 0.1
UUGGCG | 1.85 ± 0.022 | 1.94 ± 0.11
UUGGCC | 1.81 ± 0.031 | 1.88 ± 0.097
UUGGCA | 1.76 ± 0.035 | 1.83 ± 0.037
CUGCUA | 1.4 ± 0.025 | 1.57 ± 0.091

Variant | normalized RNA/DNA level without ligand (log10) (cyclic di-GMP [1]) | normalized RNA/DNA level with ligand (log10) (cyclic di-GMP [2])
CUGCUC | 1.7 ± 0.0046 | 1.83 ± 0.14
CUGCUU | 1.6 ± 0.06 | 1.76 ± 0.09
CUGCUG | 1.63 ± 0.055 | 1.79 ± 0.11
AUUCGU | 1.79 ± 0.024 | 1.86 ± 0.12
AUUCGA | 1.58 ± 0.023 | 1.71 ± 0.066
AUGCUA | 1.57 ± 0.034 | 1.77 ± 0.06
AUGCUU | 1.61 ± 0.025 | 1.8 ± 0.12
AUGCUC | 1.74 ± 0.052 | 1.85 ± 0.046
AUGCUG | 1.68 ± 0.028 | 1.83 ± 0.074
CUGUCC | 1.786 ± 0.0046 | 1.92 ± 0.12
CUGUCU | 1.57 ± 0.086 | 1.76 ± 0.067
CUGUCG | 1.73 ± 0.047 | 1.84 ± 0.14
UUUGAU | 1.649 ± 0.014 | 1.82 ± 0.12
UUUGAG | 1.71 ± 0.038 | 1.83 ± 0.12
UUUGAC | 1.71 ± 0.03 | 1.87 ± 0.11
UUUGAA | 1.59 ± 0.017 | 1.76 ± 0.1
UUUGCA | 1.78 ± 0.018 | 1.85 ± 0.1
UUUCUG | 1.795 ± 0.012 | 1.92 ± 0.091
UUUCUC | 1.8 ± 0.024 | 1.92 ± 0.085
GUGUUU | 1.72 ± 0.023 | 1.9 ± 0.092

Source: the supplement of paper PMC6757056
